From patent publication WO2012019024A2 (dated 2012)
Numbering of substitutions follows the chain as printed.

What was measured:
human HER3 [1] = biological target: T1, human HER3 (human, UniProt P21860 20-1342); test: cell-based or functional assay
human HER3 [2] = biological target: T1, human HER3; test: flow cytometry competition on SKBR3 cells, antibody varied against 10 nM biotinylated HRG1β1 ligand
human HER3 [3] = biological target: T1, human HER3; test: Kd named as the concentration of the biotinylated reference antibody in the flow cytometry competition assay
[4] = biological target: macaque HER3 extracellular domain on 300-19 cells (pSRa-chiHER3) (macaque; human); test: flow cytometry on 300-19 cells expressing maHER3 extracellular domain, apparent Kd
macaque HER3 extracellular domain on 300-19 cells (pSRa-chiHER3) (macaque; human), sequence (P21860 644-1342, form in doubt): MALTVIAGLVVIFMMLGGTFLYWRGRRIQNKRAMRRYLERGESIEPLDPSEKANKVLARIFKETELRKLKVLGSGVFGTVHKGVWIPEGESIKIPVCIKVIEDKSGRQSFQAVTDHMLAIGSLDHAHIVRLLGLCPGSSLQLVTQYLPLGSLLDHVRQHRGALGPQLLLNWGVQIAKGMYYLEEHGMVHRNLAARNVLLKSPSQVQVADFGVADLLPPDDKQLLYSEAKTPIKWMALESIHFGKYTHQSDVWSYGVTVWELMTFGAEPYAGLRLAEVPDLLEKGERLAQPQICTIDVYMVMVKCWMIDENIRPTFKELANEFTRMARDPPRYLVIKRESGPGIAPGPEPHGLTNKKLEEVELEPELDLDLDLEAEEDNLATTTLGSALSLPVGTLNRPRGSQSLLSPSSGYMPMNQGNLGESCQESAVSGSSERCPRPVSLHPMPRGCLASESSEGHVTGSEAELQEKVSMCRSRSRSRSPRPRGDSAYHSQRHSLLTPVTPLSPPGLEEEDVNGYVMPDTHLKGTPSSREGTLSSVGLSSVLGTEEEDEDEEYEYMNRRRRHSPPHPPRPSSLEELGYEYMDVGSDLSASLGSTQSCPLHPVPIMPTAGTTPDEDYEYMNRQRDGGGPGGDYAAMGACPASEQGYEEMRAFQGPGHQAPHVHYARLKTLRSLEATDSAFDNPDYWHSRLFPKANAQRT

human HER3 [5] = biological target: T1, human HER3; test: flow cytometry on huHER3-overexpressing 300-19 cells, apparent Kd (EC50 of the binding curve)
human HER3 [6] = biological target: T1, human HER3; test: flow cytometry on SKBR3 cells (endogenous HER3), apparent Kd
human HER3 [7] = biological target: T1, human HER3; test: flow cytometry on SKBR3 cells, apparent Kd
Target sequence in this assay (P21860 20-1342 limits assumed): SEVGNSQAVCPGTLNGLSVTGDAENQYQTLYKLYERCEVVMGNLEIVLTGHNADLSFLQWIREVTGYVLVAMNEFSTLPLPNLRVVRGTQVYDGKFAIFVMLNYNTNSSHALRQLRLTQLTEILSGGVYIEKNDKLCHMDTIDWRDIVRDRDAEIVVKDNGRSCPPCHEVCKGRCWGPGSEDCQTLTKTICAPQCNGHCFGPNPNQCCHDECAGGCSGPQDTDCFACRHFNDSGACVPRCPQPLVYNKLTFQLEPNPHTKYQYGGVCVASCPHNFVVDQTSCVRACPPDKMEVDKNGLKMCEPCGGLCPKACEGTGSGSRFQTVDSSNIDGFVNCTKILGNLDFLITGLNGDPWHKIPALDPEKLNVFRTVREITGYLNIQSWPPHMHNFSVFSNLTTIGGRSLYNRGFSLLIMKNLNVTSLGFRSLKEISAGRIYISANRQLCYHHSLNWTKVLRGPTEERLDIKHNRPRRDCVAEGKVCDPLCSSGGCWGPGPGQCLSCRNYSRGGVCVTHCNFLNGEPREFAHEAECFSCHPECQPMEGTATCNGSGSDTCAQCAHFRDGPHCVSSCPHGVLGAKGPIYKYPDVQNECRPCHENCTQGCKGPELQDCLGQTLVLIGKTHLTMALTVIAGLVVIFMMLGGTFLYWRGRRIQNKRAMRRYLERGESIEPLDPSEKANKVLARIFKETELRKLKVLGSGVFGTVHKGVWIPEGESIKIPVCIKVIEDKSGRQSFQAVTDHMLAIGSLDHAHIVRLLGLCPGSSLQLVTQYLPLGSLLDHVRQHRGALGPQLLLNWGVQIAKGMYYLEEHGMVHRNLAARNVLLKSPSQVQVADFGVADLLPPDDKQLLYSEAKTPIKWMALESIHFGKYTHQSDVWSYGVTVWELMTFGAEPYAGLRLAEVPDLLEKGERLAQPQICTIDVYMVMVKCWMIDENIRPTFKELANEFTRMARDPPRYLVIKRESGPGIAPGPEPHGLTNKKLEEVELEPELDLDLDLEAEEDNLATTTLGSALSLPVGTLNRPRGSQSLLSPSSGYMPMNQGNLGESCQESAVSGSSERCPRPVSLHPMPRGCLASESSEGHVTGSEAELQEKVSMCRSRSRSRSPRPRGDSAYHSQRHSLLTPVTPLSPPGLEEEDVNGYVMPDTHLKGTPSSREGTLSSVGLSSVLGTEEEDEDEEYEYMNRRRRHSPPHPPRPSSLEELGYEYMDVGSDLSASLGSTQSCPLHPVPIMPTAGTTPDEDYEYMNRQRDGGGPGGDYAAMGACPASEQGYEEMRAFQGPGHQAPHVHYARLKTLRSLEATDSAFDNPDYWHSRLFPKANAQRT

[8] = biological target: macaque HER3 extracellular domain on 300-19 cells (pSRa-chiHER3) (macaque; human); test: cell-based or functional assay
[9] = biological target: macaque HER3 extracellular domain on 300-19 cells (pSRa-chiHER3) (macaque; human); test: flow cytometry on maHER3-overexpressing 300-19 cells, apparent Kd
human HER3 [10] = biological target: T1, human HER3; test: flow cytometry competition on SKBR3 cells, naked antibody varied, competitor biotinylated muHER3-8
[11] = biological target: T2, chL1-S1 chimeric human/murine HER-3 ECD Fc fusion (human; murine, UniProt P21860 20-632); test: ELISA on chL1-S1 Fc (Figure 30)
T2 construct: also called chLl-Sl; chimeric ECD comprising human L1-S1 domains and murine L2-S2 domains; not shown: murine IgG2A hinge, CH2, and CH3 region (pmuFc2ANL vector)
T2 chain: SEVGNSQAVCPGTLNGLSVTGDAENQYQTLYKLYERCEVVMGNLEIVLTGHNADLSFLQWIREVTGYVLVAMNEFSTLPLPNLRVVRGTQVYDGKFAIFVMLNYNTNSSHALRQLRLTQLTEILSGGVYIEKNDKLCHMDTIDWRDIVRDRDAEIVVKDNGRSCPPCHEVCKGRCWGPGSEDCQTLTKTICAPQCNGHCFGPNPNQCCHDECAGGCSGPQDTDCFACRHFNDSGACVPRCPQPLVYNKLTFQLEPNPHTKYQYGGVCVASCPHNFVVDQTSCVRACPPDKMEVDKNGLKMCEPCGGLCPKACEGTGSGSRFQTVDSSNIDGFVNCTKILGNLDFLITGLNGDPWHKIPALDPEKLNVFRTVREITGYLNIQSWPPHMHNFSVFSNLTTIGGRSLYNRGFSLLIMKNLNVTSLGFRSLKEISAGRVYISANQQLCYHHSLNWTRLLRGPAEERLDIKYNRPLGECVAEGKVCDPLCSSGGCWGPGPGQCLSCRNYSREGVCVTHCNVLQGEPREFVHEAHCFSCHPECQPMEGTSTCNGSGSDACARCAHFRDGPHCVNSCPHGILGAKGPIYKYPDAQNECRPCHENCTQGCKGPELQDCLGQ

human HER3 [12] = biological target: T1, human HER3; test: flow cytometry on huHER3-expressing 300-19 cells
human HER3 [13] = biological target: T1, human HER3; test: flow cytometry on huHER3-expressing 300-19 cells, apparent Kd, comparison of murine and humanized antibody
human HER3 [14] = biological target: T1, human HER3; test: flow cytometry on huHER3-expressing 300-19 cells (Figure 15)
[15] = biological target: T3, human HER-3 ECD Fc protein (human; murine, UniProt P21860 20-632); test: ELISA on human HER-3 ECD Fc (Figure 28)
T3 construct: also called Fc fusion of human HER-3; not shown: murine IgG2A hinge, CH2, and CH3 region (pmuFc2ANL vector)

[16] = biological target: T4, murine HER-3 ECD Fc fusion (murine, UniProt Q61526 20-632); test: ELISA on murine HER-3 ECD Fc (Figure 29)
T4 construct: 'similarly constructed' to the human fusion; also called murine HER-3-Fc; not shown: murine IgG2A hinge, CH2, and CH3 region (pmuFc2ANL vector)

human HER3 [17] = biological target: T1, human HER3; test: flow cytometry competition on SKBR3 cells, competitor biotinylated muHER3-8
[18] = biological target: T5, chL2-S2 chimeric human/murine HER-3 ECD Fc fusion (murine; human, UniProt Q61526 20-632); test: ELISA on chL2-S2 Fc
T5 construct: also called chL2-S2-Fc; chimeric ECD comprising murine L1-S1 domains and human L2-S2 domains; not shown: murine IgG2A hinge, CH2, and CH3 region (pmuFc2ANL vector)
T5 chain: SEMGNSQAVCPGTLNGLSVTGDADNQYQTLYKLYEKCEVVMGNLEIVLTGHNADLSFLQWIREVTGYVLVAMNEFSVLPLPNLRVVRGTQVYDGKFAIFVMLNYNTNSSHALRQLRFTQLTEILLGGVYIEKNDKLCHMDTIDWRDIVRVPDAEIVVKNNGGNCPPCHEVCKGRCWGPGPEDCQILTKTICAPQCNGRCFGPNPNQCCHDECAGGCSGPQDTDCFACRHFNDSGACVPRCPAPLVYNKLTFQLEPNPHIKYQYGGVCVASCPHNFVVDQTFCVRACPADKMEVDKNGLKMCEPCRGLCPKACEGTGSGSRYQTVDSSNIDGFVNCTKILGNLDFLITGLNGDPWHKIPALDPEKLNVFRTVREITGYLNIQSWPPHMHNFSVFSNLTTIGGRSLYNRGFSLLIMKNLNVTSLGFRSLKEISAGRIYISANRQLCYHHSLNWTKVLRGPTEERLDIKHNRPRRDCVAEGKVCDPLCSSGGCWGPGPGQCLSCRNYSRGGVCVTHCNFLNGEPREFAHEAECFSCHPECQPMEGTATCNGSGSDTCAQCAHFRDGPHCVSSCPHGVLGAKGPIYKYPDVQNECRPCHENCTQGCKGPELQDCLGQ

Molecule chKTI-SPDB-DM4 conjugate (antibody) has an in vitro cytotoxicity EC50 (WST-8 surviving fraction), huHER3-overexpressing 300-19 cells (human HER3 [1]) of 4.4 nM.

U3-Pharma/Amgen's U1-59 antibody was tested, and the EC50 (human HER3 [2]) was 2.2 nM and the Kd (human HER3 [3]) was 1 nM.

chKTI-SMCC-DM1 conjugate (antibody) was tested, and the in vitro cytotoxicity EC50 (WST-8 surviving fraction), huHER3-overexpressing 300-19 cells (human HER3 [1]) was 53 nM.

B1: muHER3-3 antibody (antibody, mouse IgG1, kappa, V domains shown)
VH: QVQLQQPGAELVMPGASVKMSCKASGYTFTDYWIHWVKQRPGQGLEWIGAIDTDTYTSYNQQFKGKATLTVDESSSTAYMQLSSLTSEDSAVYYCARSLLRLLYFDYWGQGTTLTVSS
VL: DIVMTQSPATLSVTPGDRVSLSCRASQSITDYLHWYQQKSHESPRLLIKFASQSISGIPSRFSGSGSGSDFTLSINSVEPEDVGVYYCQNGHSFPLTFGAGTKLELKR
notes: also called HER3-3 (murine)
B1 was tested, and the EC50 (human HER3 [2]) was 0.32 nM, the Kd [4] was 0.14 nM and the “HRG1β1-induced AKT phosphorylation (pAKT level, % of ligand-only control), whole cell ELISA, MCF7 cells, 10 µg/ml antibody” value (human HER3 [1]) was under 50%. For the same molecule, the “HRG1β1-induced HER3 phosphorylation (pHER3 level, % of ligand-only control), whole cell ELISA, MCF7 cells, 10 µg/ml antibody” value (human HER3 [1]) was under 20%, the Kd (human HER3 [5]) was 0.3 nM and the Kd (human HER3 [6]) was 0.21 nM.

B2: huHER3-8-SMCC-DM1 conjugate (antibody, V domains shown)
VH: QVQLQESGPGLVKPSQSLSLTCTVTGSSITSDYAWNWIRQHPGNKLEWMGFISYSGSTSYNPSLKSRISITRDTSKNQFFLHLSSVTAADTATYYCSRRLGRLYYFDYWGQGTLLTVSS
VL: EIVMTQSPATLSVTPGDRVSLSCRASQSINDYLHWYQQKPGQSPRLLIKFASHSISGIPDRFSGSGSGSDFTLTISSVEPEDVGVYYCQNGHSFPWTFGGGTKLEIKR
modifications: SMCC-DM1 maytansinoid linked to the antibody, 3.5-4 DM1 molecules per antibody; attachment residues and chain not stated
notes: Immunoconjugate of huHER3-8 (v.1.00) with human constant regions; also called huHER3-8-SMCC-DMl
Work on B2 yielded a Kd (human HER3 [7]) of 0.49 nM, an in vitro cytotoxicity EC50 (WST-8 surviving fraction), maHER3-overexpressing 300-19 cells [8] of 0.059 nM and a Kd [9] of 0.29 nM. The “in vitro cytotoxicity EC50 (WST-8 surviving fraction), huHER3-overexpressing 300-19 cells” value (human HER3 [1]) was 0.17 nM.

B3: huHER3-8-SPDB-DM4 conjugate (antibody, V domains shown)
VH: B2 VH
VL: B2 VL
modifications: SPDB-DM4 maytansinoid linked to the antibody, 3.5-4 DM4 molecules per antibody; attachment residues and chain not stated
notes: Immunoconjugate of huHER3-8 (v.1.00) with human constant regions
B3 showed a Kd (human HER3 [7]) of 0.29 nM, an in vitro cytotoxicity EC50 (WST-8 surviving fraction), maHER3-overexpressing 300-19 cells [8] of 0.099 nM and a Kd [9] of 0.23 nM. The “in vitro cytotoxicity EC50 (WST-8 surviving fraction), huHER3-overexpressing 300-19 cells” value (human HER3 [1]) was 0.18 nM.

B4: huHER3-3-SMCC-DM1 conjugate (antibody, V domains shown)
VH: B1 VH with Q5V, L11V, M13K, Q62K, K64Q
VL: B2 VL with S20T, N30T, H53Q, T74S, W96L, G100Q, I106L
modifications: SMCC-DM1 maytansinoid linked to the antibody, 3.5-4 DM1 molecules per antibody; attachment residues and chain not stated
For B4, the “in vitro cytotoxicity EC50 (WST-8 surviving fraction), huHER3-overexpressing 300-19 cells” value (human HER3 [1]) was 0.19 nM.

B5: huHER3-8v.1.00 antibody (antibody, V domains shown)
VH: B2 VH
VL: B2 VL
notes: Recombinant humanized antibody with human constant regions; also called huHER3-8 naked antibody
B5 was tested, and the Kd (human HER3 [7]) was 0.14 nM, the EC50 (human HER3 [10]) was 0.24 nM and the Kd [9] was 0.19 nM. For the same molecule, the binding result [11] was “binds”, the “fold increase of binding affinity against muHER3-8” value (human HER3 [12]) was about 2 fold and the Kd (human HER3 [13]) was 0.12 nM.

B6: huHER3-3 antibody (antibody, V domains shown)
VH: B1 VH with Q5V, L11V, M13K, Q62K, K64Q
VL: B2 VL with S20T, N30T, H53Q, T74S, W96L, G100Q, I106L
notes: Recombinant humanized antibody with human constant regions (pAbGlNeo / pAbKZeo plasmids), expressed in HEK 293T; also called humanized (resurfaced) HER3-3
B6: binds (human HER3 [14]); binds [15]; binds [11]. B6: binds [16].

B7: muHER3-8 antibody (antibody, mouse IgG1, V domains shown)
VH: B2 VH with Q1D, K13T, H41F, A88S, A89E, R99K, L114T
VL: B1 VL with T30N, Q53H, S74T, L96W, A100G, L106I
notes: also called HER3-8 (murine)
For B7, the EC50 (human HER3 [2]) was 0.29 nM, the Kd (human HER3 [3]) was 0.2 nM and the Kd [4] was 0.24 nM. For the same molecule, the EC50 (human HER3 [10]) was 0.76 nM, the “HRG1β1-induced AKT phosphorylation (pAKT level, % of ligand-only control), whole cell ELISA, MCF7 cells, 10 µg/ml antibody” value (human HER3 [1]) was under 50% and the “HRG1β1-induced HER3 phosphorylation (pHER3 level, % of ligand-only control), whole cell ELISA, MCF7 cells, 10 µg/ml antibody” value (human HER3 [1]) was under 20%. For the same molecule, the “HRG1β1-induced MCF7 cell proliferation (WST-8, % of ligand-only control), 10 µg/ml antibody” value (human HER3 [1]) was 40%, the Kd (human HER3 [5]) was 0.23 nM and the Kd (human HER3 [6]) was 0.31 nM.

B8: huHER3-8-PEG4-mal-DM1 conjugate (antibody, V domains shown)
VH: B2 VH
VL: B2 VL
modifications: PEG4-mal-DM1 maytansinoid linked to the antibody, 3.5-4 maytansinoid molecules per antibody; attachment residues and chain not stated
notes: Immunoconjugate of huHER3-8 (v.1.00) with human constant regions; also called huHER3-8-PEG-mal-DM1; huHER3-8-PEG4-Mal-DMl
With B8 the Kd (human HER3 [7]) was 0.27 nM, the in vitro cytotoxicity EC50 (WST-8 surviving fraction), maHER3-overexpressing 300-19 cells [8] was 0.045 nM and the Kd [9] was 0.28 nM.

B9: huHER3-8v.1.01 antibody (antibody, V domains shown)
VH: B2 VH with R99K
VL: B2 VL
notes: Recombinant humanized antibody with human constant regions; murine lysine 95 of heavy chain CDR3 retained
B9: binds (human HER3 [17]).

B10: muHER3-10 antibody (antibody, mouse IgG1, V domains shown)
VH: EVQLQQSGPELVKPGVSMKISCKASGYSFTDYTMNWVKQSHGKNLEWIGLINPYNDITAYNQKFKGKATLSVNKSSSTAYMELLSLTSEDSAVYYCARRGPRGAWFAYWGQGTLVTVSA
VL: NIVLTQSPASLAVSLGQRATISCRASTSVYNYGNSFMHWYQQMPGQPPKLLIYLASNLESGVPARFSGSGSRTDFTLTIDPVEADDAATYYCQQNSEDPWTFGGGTKLEIKR
notes: also called HER3-10 (murine)
For B10, the Kd [4] was 0.042 nM, the “HRG1β1-induced AKT phosphorylation (pAKT level, % of ligand-only control), whole cell ELISA, MCF7 cells, 10 µg/ml antibody” value (human HER3 [1]) was under 50% and the “HRG1β1-induced HER3 phosphorylation (pHER3 level, % of ligand-only control), whole cell ELISA, MCF7 cells, 10 µg/ml antibody” value (human HER3 [1]) was under 20%. It also gave a Kd (human HER3 [5]) of 0.068 nM and a Kd (human HER3 [6]) of 0.052 nM.

B11: huHER3-10 antibody (antibody, V domains shown)
VH: B10 VH with E1Q, Q5V, L11V, S28T, H41P, K43Q, K65Q, N73D
VL: B10 VL with N1D, L15P, D85N, G104Q
notes: Recombinant humanized antibody with human constant regions; also called huHer-10; humanized (resurfaced) HER3-10
B11: no binding [18]; binds [11].
